Earlier results on one substance are cited in publication PMC8349851.

pKd: −log10 of the molar value.

The series deals with PI3K p85 regulatory subunit SH3 (Homo sapiens) (UniProt P27986).
Chain of UniProt P27986 (P27986 1-82): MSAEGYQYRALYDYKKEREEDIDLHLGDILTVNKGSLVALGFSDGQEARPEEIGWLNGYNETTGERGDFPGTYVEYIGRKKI

As to obscurin PH (from UniProt Q5VST9), the pKd was 7.30.
